These are literature values, as cited in US20060122098A1, “System for infusing insulin to a subject to imporve impaired total body tissue glucose processing” (priority 2004, published 2006).

For the series the following is noted: in vivo.

What is called half-life is how long it takes for the measured level to halve. For the substance insulin, the half-life is 5 min.
